The source of these data is US7494647 (Chugai, dated 2009).

Where two headings read alike, the source gives them in different places.

For assay [1], the target named is T1, TF/Factor VIIa complex (human, UniProt P13726 33-295; P08709 61-466). Put plainly: cell-based or functional assay.
The target in assay [2] is T2, soluble human TF (human TF 1-219 with the FLAG peptide linked to the C-terminal) (human, UniProt P13726 33-251).
T2 construct: Entry is the whole soluble construct (TF 1-219 followed by FLAG peptide M2); also called soluble TF; shTF
Put plainly: BIACORE; antibody captured on Protein G chip, soluble TF as analyte; mean ± SD, n = 3. How it is done:
Kinetic analysis of the antigen-antibody reaction was carried out using BIACORE. The recombinant Protein G was immobilized on a sensor chip, to which the antibody was coupled. The purified recombinant TF (a soluble TF in which the FLAG peptide was tagged at 1-219) was used as the antigen, and the-soluble TF prepared at various concentrations were used as analytes. From the sensorgram obtained, kinetic parameters (dissociation rate constants kdiss, and binding rate constants kass) were calculated.
As the running buffer, the HBS-EP buffer was used. Ten μl Of […] antibody solution was injected at a flow rate of 20 μl/min to immobilize antibody. The antibody was diluted with the HBS-EP buffer. Forty μl Of the soluble human TF solution at various concentrations were injected at a flow rate of 30 μl/min thereto. In the analysis, 80 seconds for injection was set as the binding phase and then changed to the HBS-EP buffer to set the dissociation phase of 120 seconds. After the dissociation phase was over, 10 μl of 20 mM hydrochloric acid was injected to reconstitute the sensor chip. The binding, dissociation, and reconstitution were set as one cycle, and the sensorgram was obtained for each antibody. The soluble human TF solution was prepared at concentrations of 250 nM, 125 nM, 62.5 nM, 31.3 nM, 15.6 nM, 7.81 nM, and 3.91 nM using the HBS-EP buffer. As the blank, the sensorgram obtained by injecting the HBS-EP buffer used for dilution was used.
The data file of interest was read in, and the comparison of reaction patterns by superscription was made using as the baseline the sensorgram of the HBS-EP buffer. Furthermore, using an analytical application software "BIAevaluation 2.1" (Pharmacia) exclusively for BIACORE that calculates kinetic parameters (binding rate constants kass and dissociation rate constants kdiss) by curve-fitting, kinetic analysis of interaction was performed. In order to determine the binding rate constants kass, the analysis model type 4 was used (BIAevaluation 2.1 Software Hand book, A1-A5). Based on the values calculated from each flow cell, kinetic parameters for each antibody were obtained.
Background: SPR reads the build-up and loss of mass on a sensor chip optically.

For assay [3], the target named is T3, human tissue factor (TF) on human bladder carcinoma cells J82 (human, UniProt P13726 33-295).
T3 construct: whole, on cells; also called the antigen; J82 cells
Put plainly: cell ELISA on paraformaldehyde-fixed J82 cells; AP-conjugated goat anti-human IgGγ; absorbance 405/655 nm. How it is done:
(§1) Cell ELISA plates for measurement of antigen binding were prepared as follows. Cells used were human bladder carcinoma cells J82 (ATCC HTB-1). To 60 wells of a 96-well cell culture plate, 1 ×10^5 J82 cells were inoculated. This was cultured (RPMI1640 medium containing 10% fetal bovine serum (GIBCO)) for one day in a CO_2 incubator to allow the cells to be attached thereto. After discarding the culture liquid, each well was washed twice with 300 μl PBS. 100 μl of PBS containing 4% paraformaldehyde (hereinafter referred to as PFA/PBS) was added to each well, and placed on ice for 10 minutes to immobilize the cells.
(§2) PFA/PBS was discarded, and each well was washed twice with 300 μl of PBS, and then blocked with 250 μl of DB. The culture supernatant or purified antibody was serially diluted with DB, 100 μl of which was added to each well. After incubating at room temperature for 2 hours followed by washing with RB, 100 μl of alkaline phosphatase-conjugated goat anti-human IgGγ antibody (BioSource) diluted 1000-fold with DB was added. After incubating for 1 hour followed by washing with RB, the substrate solution was added, and then absorbance at 405/655 nm was measured using the Microplate Reader (Bio-Rad).

For assay [4], the target named is T3, human tissue factor (TF) on human …. The assay is described as above. As for the experimental part:
as §1, §2
This is another data set of the same source.

For assay [5] the target is unchanged. The assay is described as above. As for the experimental part: as §1, §2
This is another data set of the same source.

Assay [6] shares this target. The description is as above. How it is done: as §1, §2
The source holds these as a separate data set.

Assay [7] shares this target. The description is as above. How it is done:
as §1, §2
The source holds these as a separate data set.

Assay [8] addresses T1, TF/Factor VIIa complex.

T1 sequence (P13726 33-295 limits assumed, chain 1 of 2): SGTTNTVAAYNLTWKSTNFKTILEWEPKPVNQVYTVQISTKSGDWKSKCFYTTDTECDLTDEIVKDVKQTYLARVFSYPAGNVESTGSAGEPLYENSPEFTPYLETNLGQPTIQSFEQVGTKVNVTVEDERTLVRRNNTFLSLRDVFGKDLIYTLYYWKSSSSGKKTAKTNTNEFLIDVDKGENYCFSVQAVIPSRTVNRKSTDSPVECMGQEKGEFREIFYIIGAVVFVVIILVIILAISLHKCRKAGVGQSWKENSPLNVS
T1 sequence (P08709 61-466 limits assumed, chain 2 of 2): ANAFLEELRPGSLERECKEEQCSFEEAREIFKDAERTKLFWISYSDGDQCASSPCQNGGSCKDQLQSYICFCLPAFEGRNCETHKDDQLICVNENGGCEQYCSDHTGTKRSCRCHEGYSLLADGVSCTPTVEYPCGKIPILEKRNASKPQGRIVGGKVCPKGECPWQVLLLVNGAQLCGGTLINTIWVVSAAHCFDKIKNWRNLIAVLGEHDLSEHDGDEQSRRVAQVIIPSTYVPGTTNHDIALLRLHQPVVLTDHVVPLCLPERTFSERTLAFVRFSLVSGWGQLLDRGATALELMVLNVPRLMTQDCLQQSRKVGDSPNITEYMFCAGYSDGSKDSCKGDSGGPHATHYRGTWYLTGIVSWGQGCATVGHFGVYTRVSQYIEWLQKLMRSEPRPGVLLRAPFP
T3 sequence (P13726 33-295): as the sequence (P13726 33-295 limits assumed, chain 1 of 2) above
T2 sequence (P13726 other isoform, or with tags, fused parts or gaps limits assumed): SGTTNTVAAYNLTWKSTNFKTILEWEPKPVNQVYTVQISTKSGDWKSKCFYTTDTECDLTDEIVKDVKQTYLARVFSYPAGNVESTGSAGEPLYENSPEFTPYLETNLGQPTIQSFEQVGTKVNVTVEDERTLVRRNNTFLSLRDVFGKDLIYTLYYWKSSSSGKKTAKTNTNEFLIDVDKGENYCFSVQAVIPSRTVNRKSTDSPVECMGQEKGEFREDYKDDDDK

B1: H chain chimeric/L chain chimeric antibody (chimeric ATR-5 antibody) (antibody, V domains shown)
VH: EVQLQQSGTNLVRPGALVKLSCKGSGFNIKDYYMHWVKQRPEQGLEWIGGNDPANGHSMYDPKFQGKASITADTSSNTAYLQLSSLTSEDTAVYFCARDSGYAMDYWGQGTSVTVSS
VL: DIKMTQSPSSMYASLGERVTITCKASQDIKSFLSWYQQKPWKSPKTLIYYATSLADGVPSRFSGSGSGQDYSLTINNLESDDTATYYCLQHGESPYTFGGGTKLEIK
notes: Mouse ATR-5 V regions joined to human C regions; Both an IgG1 (N5KG1(V)) and an IgG4 (N5KG4P) kappa form were made; also called ch-ch; cha-cha
The term Kd denotes the free concentration of one partner at which half of the binding sites on the other are occupied at equilibrium, for simple one-to-one binding. Usually koff stands for the first-order rate constant of dissociation. The kon is a measure of how fast the partners come together. Low values mean slower complex formation, high ones faster complex formation. The term EC50 (read off the curve) denotes the concentration at which the effect is half-maximal. B1: the “IC50 (read off the curve)” value in assay [1] is about 0.2 µg/mL. Moreover, the Kd in assay [2] came to 1.09 nM. Besides, the koff in assay [2] amounted to 0.000506 s⁻¹. Moreover, in assay [2], the kon worked out at 465000 M⁻¹ s⁻¹. Besides, the “EC50 (read off the curve)” value in assay [3] was about 0.07 µg/mL; in assay [4], about 0.05 µg/mL; in assay [5], about 0.08 µg/mL; in assay [6], about 0.04 µg/mL; in assay [7], about 0.04 µg/mL.

B2: H chain humanized version b/L chain humanized version b antibody (antibody, IgG4, V domains shown)
VH: QVQLLESGAVLARPGTSVKISCKASGFNIKDYYMHWVKQRPGQGLEWIGGNDPANGHSMYDPKFQGRVTITADTSTNTAYMELSSLRSEDTAIYYCARDSGYAMDYWGQGTLVTVSS
VL: DIQMTQSPSSLSASVGDRVTITCKASQDIKSFLSWYQQKPGKAPKLLIYYATSLADGVPSRFSGSGSGTDYTLTISSLQPEDFATYYCLQHGESPYTFGGGTKVEIK
notes: also called b-b; bb
For B2, in assay [2], the Kd was 2.3 nM, the koff worked out at 0.000952 s⁻¹ and the kon stood at 415000 M⁻¹ s⁻¹. This molecule yielded an IC50 (read off the curve) in assay [8] of 0.1 µg/mL. For the same molecule, the “EC50 (read off the curve)” value in assay [3] was about 0.07 µg/mL. Also, the “EC50 (read off the curve)” value in assay [7] was about 0.05 µg/mL.

B3: H chain humanized version a/L chain humanized version a antibody (antibody, IgG4, V domains shown)
VH: QVQLLESGAVLARPGTSVKISCKASGFNIKDYYMHWVKQRPGQGLEWIGGNDPANGHSMYDPKFQGRAKLTAATSASIAYLEFSSLTNEDSAVYYCARDSGYAMDYWGQGTLVTVSS
VL: DIQMTQSPSSLSASVGDRVTITCKASQDIKSFLSWYQQKPGKAPKLLIYYATSLADGVPSRFSGSGSGTDFTLTISSLQPEDFATYYCLQHGESPYTFGGGTKVEIK
In the case of B3, the “EC50 (read off the curve)” value in assay [4] is about 0.03 µg/mL.

B4: H chain humanized version i/L chain humanized version b antibody (antibody, IgG4, V domains shown)
VH: QVQLLESGAVLARPGTSVKISCKASGFNIKDYYMHWVKQRPGQGLEWIGGNDPANGHSMYDPKFQGRVTITADTSTSTAYMELRSLRSDDTAVYYCARDSGYAMDYWGQGTLVTVSS
VL: DIQMTQSPSSLSASVGDRVTITCKASQDIKSFLSWYQQKPGKAPKLLIYYATSLADGVPSRFSGSGSGTDYTLTISSLQPEDFATYYCLQHGESPYTFGGGTKVEIK
With B4, the “IC50 (read off the curve)” value in assay [1] is about 0.1 µg/mL. In assay [2], this molecule had a Kd of 1.39 nM, a koff of 0.000649 s⁻¹ and a kon of 467000 M⁻¹ s⁻¹.

B5: H chain chimeric/L chain humanized version b antibody (antibody, IgG4, V domains shown)
VH: EVQLQQSGTNLVRPGALVKLSCKGSGFNIKDYYMHWVKQRPEQGLEWIGGNDPANGHSMYDPKFQGKASITADTSSNTAYLQLSSLTSEDTAVYFCARDSGYAMDYWGQGTSVTVSS
VL: DIQMTQSPSSLSASVGDRVTITCKASQDIKSFLSWYQQKPGKAPKLLIYYATSLADGVPSRFSGSGSGTDYTLTISSLQPEDFATYYCLQHGESPYTFGGGTKVEIK
notes: H chain V region is that of mouse ATR-5; also called ch-b
As to B5, the “EC50 (read off the curve)” value in assay [5] is about 0.08 µg/mL.

B6: H chain humanized version b/L chain humanized version c antibody (antibody, V domains shown)
VH: QVQLLESGAVLARPGTSVKISCKASGFNIKDYYMHWVKQRPGQGLEWIGGNDPANGHSMYDPKFQGRVTITADTSTNTAYMELSSLRSEDTAIYYCARDSGYAMDYWGQGTLVTVSS
VL: DIQMTQSPSSLSASVGDRVTITCKASQDIKSFLSWYQQKPGKAPKLLIYYATSLADGVPSRFSGSGSGTDYTLTISSLQPEDIATYYCLQHGESPYTFGGGTKVEIK
notes: also called b-c
In the case of B6, the “EC50 (read off the curve)” value in assay [7] is about 0.05 µg/mL.

B7: H chain humanized version i/L chain humanized version b2 antibody (antibody, IgG4, V domains shown)
VH: QVQLLESGAVLARPGTSVKISCKASGFNIKDYYMHWVKQRPGQGLEWIGGNDPANGHSMYDPKFQGRVTITADTSTSTAYMELRSLRSDDTAVYYCARDSGYAMDYWGQGTLVTVSS
VL: DIQMTQSPSSLSASVGDRVTITCKASQDIKSFLSWYQQKPEKAPKSLIYYATSLADGVPSRFSGSGSGTDYTLTISSLQPEDFATYYCLQHGESPYTFGGGTKVEIK
notes: also called i-b2; ib2
Take B7: the “IC50 (read off the curve)” value in assay [1] was about 0.06 µg/mL. In assay [2], this molecule registered a Kd of 1.17 nM, an off-rate constant (koff) of 0.000635 s⁻¹ and a kon of 544000 M⁻¹ s⁻¹.

B8: H chain chimeric/L chain humanized version c antibody (antibody, IgG4, V domains shown)
VH: EVQLQQSGTNLVRPGALVKLSCKGSGFNIKDYYMHWVKQRPEQGLEWIGGNDPANGHSMYDPKFQGKASITADTSSNTAYLQLSSLTSEDTAVYFCARDSGYAMDYWGQGTSVTVSS
VL: DIQMTQSPSSLSASVGDRVTITCKASQDIKSFLSWYQQKPGKAPKLLIYYATSLADGVPSRFSGSGSGTDYTLTISSLQPEDIATYYCLQHGESPYTFGGGTKVEIK
notes: H chain V region is that of mouse ATR-5; also called ch-c
With B8, in assay [5], the “EC50 (read off the curve)” value was about 0.07 µg/mL.

B9: H chain chimeric/L chain humanized version a antibody (antibody, IgG4, V domains shown)
VH: EVQLQQSGTNLVRPGALVKLSCKGSGFNIKDYYMHWVKQRPEQGLEWIGGNDPANGHSMYDPKFQGKASITADTSSNTAYLQLSSLTSEDTAVYFCARDSGYAMDYWGQGTSVTVSS
VL: DIQMTQSPSSLSASVGDRVTITCKASQDIKSFLSWYQQKPGKAPKLLIYYATSLADGVPSRFSGSGSGTDFTLTISSLQPEDFATYYCLQHGESPYTFGGGTKVEIK
notes: H chain V region is that of mouse ATR-5
As for B9, the “EC50 (read off the curve)” value in assay [6] was about 0.03 µg/mL.
